For data set [1], the system named is T1, C/C=C/C(=O)SCCNC(=O)CCNC(=O)[C@H](O)C(C)(C)COP(=O)(O)OP(=O)(O)OC[C@H]1O[C@@H](n2cnc3c(N)ncnc32)[C@H](O)[C@@H]1OP(=O)(O)O.
T1 construct: C-terminal MaoC domain only (DUF35 removed), His-tagged (pET28a NdeI/HindIII), from E. coli BL21 LOBSTR; homodimer
Description: purified protein. Particulars: 100 mM sodium Hepes pH 7.5, 25 °C. The class given is biochemical, Comamonas testosteroni.

The subject of data set [2] is T2, C[C@H](/C=C/C(=O)SCCNC(=O)CCNC(=O)[C@H](O)C(C)(C)COP(=O)(O)OP(=O)(O)OC[C@H]1O[C@@H](n2cnc3c(N)ncnc32)[C@H](O)[C@@H]1OP(=O)(O)O)[C@H]1CC[C@H]2[C@@H]3[C@H](O)C[C@@H]4C[C@H](O)CC[C@]4(C)[C@H]3C[C@H](O)[C@]12C.
T2 construct: C-terminal MaoC domain only (DUF35 removed), His-tagged (pET28a NdeI/HindIII), from E. coli BL21 LOBSTR; homodimer
The data set is described as follows: purified protein. The class given is biochemical, Comamonas testosteroni. Particulars: 100 mM sodium Hepes pH 7.5, 25 °C.

Substrate in data set [3]: C/C=C/C(=O)SCCNC(=O)CCNC(=O)[C@H](O)C(C)(C)COP(=O)(O)OP(=O)(O)OC[C@H]1O[C@@H](n2cnc3c(N)ncnc32)[C@H](O)[C@@H]1OP(=O)(O)O
The data set is described as follows: purified protein. The class given is biochemical, Comamonas testosteroni. Particulars: 100 mM sodium Hepes pH 7.5, 25 °C.

Substrate in data set [4]: C[C@H](/C=C/C(=O)SCCNC(=O)CCNC(=O)[C@H](O)C(C)(C)COP(=O)(O)OP(=O)(O)OC[C@H]1O[C@@H](n2cnc3c(N)ncnc32)[C@H](O)[C@@H]1OP(=O)(O)O)[C@H]1CC[C@H]2[C@@H]3CC=C4C[C@@H](O)CC[C@]4(C)[C@H]3CC[C@]12C
Description: purified protein. The class given is biochemical, Comamonas testosteroni. The conditions noted are these: 100 mM sodium Hepes pH 7.5, 25 °C.

Substrate in data set [5]: C[C@H](/C=C/C(=O)SCCNC(=O)CCNC(=O)[C@H](O)C(C)(C)COP(=O)(O)OP(=O)(O)OC[C@H]1O[C@@H](n2cnc3c(N)ncnc32)[C@H](O)[C@@H]1OP(=O)(O)O)[C@H]1CC[C@H]2[C@@H]3[C@H](O)C[C@@H]4C[C@H](O)CC[C@]4(C)[C@H]3C[C@H](O)[C@]12C
The data set is described as follows: purified protein. The class given is biochemical, Comamonas testosteroni. Particulars: 100 mM sodium Hepes pH 7.5, 25 °C.

Data set [6] addresses T3, N-terminal His-tagged Sal (side chain aldolase / steroid aldolase) from Comamonas testosteroni KF-1 (Comamonas testosteroni KF-1, UniProt B7X4S8 1-404).
T3 construct: gene amplified from genomic DNA; theoretical molecular weight of tagged Sal 46.08 kDa; Cloned into pMCSG7 by ligation independent cloning; source: E. coli BL21 LOBSTR (pMCSG7), coexpressed with untagged Shy or its truncated forms; in cell extract, then purified on Ni-NTA; not shown: His tag, N-terminal, kept
T3 sequence (looked up): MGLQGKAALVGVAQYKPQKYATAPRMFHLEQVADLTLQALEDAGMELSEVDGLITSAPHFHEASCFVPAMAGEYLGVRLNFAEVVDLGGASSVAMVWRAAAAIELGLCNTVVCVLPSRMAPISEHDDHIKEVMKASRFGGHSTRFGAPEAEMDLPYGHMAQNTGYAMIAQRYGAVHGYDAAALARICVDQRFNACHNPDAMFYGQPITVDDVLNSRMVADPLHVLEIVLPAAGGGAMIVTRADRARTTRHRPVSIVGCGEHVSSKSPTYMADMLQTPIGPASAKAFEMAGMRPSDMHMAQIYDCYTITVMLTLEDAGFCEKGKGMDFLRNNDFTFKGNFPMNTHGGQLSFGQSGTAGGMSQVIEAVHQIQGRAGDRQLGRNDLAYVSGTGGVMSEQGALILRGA
The data set is described as follows: SEC; analytical size-exclusion chromatography, Superdex 200, 20 mM sodium Hepes pH 7.5, 0.15 M NaCl; native molecular weight from a standard curve. The conditions noted are these: both partners purified. On the technique in general: Size exclusion chromatography separates by hydrodynamic size, large species first.

Data set [7] concerns the molecule itself. The data set is described as above.
Substrate in data set [8]: C[C@H](C(O)CC(=O)SCCNC(=O)CCNC(=O)[C@H](O)C(C)(C)COP(=O)(O)OP(=O)(O)OC[C@H]1O[C@@H](n2cnc3c(N)ncnc32)[C@H](O)[C@@H]1OP(=O)(O)O)[C@H]1CC[C@H]2[C@@H]3[C@H](O)C[C@@H]4C[C@H](O)CC[C@]4(C)[C@H]3C[C@H](O)[C@]12C
The data set is described as follows: purified protein. The class given is biochemical, Comamonas testosteroni. Particulars: 100 mM sodium Hepes pH 7.5, 25 °C, 1 mM NAD+, 7 nM Sad (coupling enzyme).

Take “ShyMaoC (Comamonas testosteroni KF-1; I309F)”: in data set [1], the Km was 65.0 ± 3.25 µM, the kcat turned out to be 0.00555 ± 0.000129 s⁻¹ and the kcat/Km is 85.4 ± 4.71 M⁻¹ s⁻¹. In data set [2], the Km was 12.3 ± 1.05 µM, the kcat came out at 67.2 ± 2.77 s⁻¹ and the kcat/Km amounted to 5.46e+06 ± 518000 M⁻¹ s⁻¹.

B1: ShyMaoC (Comamonas testosteroni KF-1) (protein)
chain: ESEVAVVEQSVAAKRRISVKDIEAMKSLVSEEYSPWSNEFTVSQEVIDEFARLSGDDYWIHTDPVQAREKSPFGTTIAHGALVQVLASQLRIPLDYEVVDFNNMVNYGSDRLRFPTPVPSGCKIRARARIKAVEQVRSGVQATMELNIHVVGQDRPAVINDLVILYM
notes: C-terminal MaoC domain only (DUF35 removed), His-tagged (pET28a NdeI/HindIII), from E. coli BL21 LOBSTR; homodimer
Take B1: in “purified protein [3]”, the Km was 63.6 ± 3.62 µM, the kcat was found to be 0.00412 ± 0.00011 s⁻¹ and the kcat/Km stood at 64.8 ± 4.07 M⁻¹ s⁻¹. In addition, in the data set “purified protein [4]”, the Km amounted to 6.71 ± 0.588 µM, the kcat stood at 62.9 ± 2.32 s⁻¹ and the kcat/Km amounted to 9.37e+06 ± 890000 M⁻¹ s⁻¹. In the data set “purified protein [5]”, the Michaelis constant (Km) stood at 6.14 ± 0.524 µM, the kcat turned out to be 211 ± 6.71 s⁻¹ and the kcat/Km came to 3.44e+07 ± 3.13e+06 M⁻¹ s⁻¹.

B2: Untagged Shy (side chain hydratase) from Comamonas testosteroni KF-1 (enzyme, UniProt B7X4S7 1-312, looked up)
chain: MAWNKPLPHPTEISAPYWEGLKAHEVRIQQCDRGHSLFFPRTHCPTCGSRSLKWSKVSGEGTLYSFTVARIPTMPEFTDEMPQALAVIELREGVRINTTMVGVAPEALKVGMEVRPVFDERPGEVTLLRFTAHAGSHPSVIKADAESEVAVVEQSVAAKRRISVKDIEAMKSLVSEEYSPWSNEFTVSQEVIDEFARLSGDDYWIHTDPVQAREKSPFGTTIAHGALVQVLASQLRIPLDYEVVDFNNMVNYGSDRLRFPTPVPSGCKIRARARIKAVEQVRSGVQATMELNIHVVGQDRPAVINDLVILYM
notes: N-terminal DUF35 domain and C-terminal MaoC domain; theoretical molecular weight 34.81 kDa; called 'the full protein' in the discussion; source: E. coli BL21 LOBSTR (pBTLactac, tagless), coexpressed with His-tagged Sal; in cell extract, then copurified on Ni-NTA
B2: in the data set “purified protein [5]”, the Km worked out at 6.19 ± 0.446 µM, the kcat was 163 ± 1.5 s⁻¹ and the kcat/Km stood at 2.64e+07 ± 1.91e+06 M⁻¹ s⁻¹. Also, the “stoichiometry N” value in data set [6] is 1 Shy per Sal (2:2 complex).

B3: His-tagged Shy_(MaoC), MaoC domain of Shy (domain or fragment, Comamonas testosteroni KF-1, UniProt B7X4S7 148-312, looked up)
chain: EVAVVEQSVAAKRRISVKDIEAMKSLVSEEYSPWSNEFTVSQEVIDEFARLSGDDYWIHTDPVQAREKSPFGTTIAHGALVQVLASQLRIPLDYEVVDFNNMVNYGSDRLRFPTPVPSGCKIRARARIKAVEQVRSGVQATMELNIHVVGQDRPAVINDLVILYM
notes: theoretical molecular weight of the tagged construct 20.5 kDa; Inserted into pET28a between NdeI and HindIII; source: E. coli BL21 LOBSTR (pET28a), purified (Ni-NTA)
On to B3, for which the “stoichiometry N” value in data set [7] is 2.

B4: Shy-Sal (aldolase site in Sal) (Comamonas testosteroni KF-1) (protein)
chain: T3 sequence (looked up)
notes: same complex as P1: N-terminally His-tagged Sal with untagged full-length Shy, from E. coli BL21 LOBSTR; 160 kDa heterotetramer; with Side chain hydratase Shy, bifunctional OB-fold (DUF35) / MaoC family dehydratase domain-containing protein
In the case of B4, in the data set “purified protein [8]”, the Km is 8.12 ± 0.477 µM, the kcat was found to be 37.6 ± 0.8 s⁻¹ and the kcat/Km was 4.63e+06 ± 289000 M⁻¹ s⁻¹.

A word on the Km: it is the concentration of substrate that gives half-maximal velocity. In general, kcat refers to the number of substrate molecules converted per active site and unit of time at saturation. What is called kcat/Km is the turnover number divided by the Michaelis constant. The term stoichiometry N denotes the number of molecules, sites or subunits per partner or assembly.

Values taken from PMC11321319, “Shy is a proteobacterial steroid hydratase which catalyzes steroid side chain degradation without requiring a catalytically inert partner domain” (The Journal of Biological Chemistry, 2024).
